Data reported in patent US5763245A, “Method of controlling insects” (priority 1996, dated 1998).

Key:
[1] = 3-Hydroxysteroid oxidase assay (spectrophotometric); assay type: biochemical
Protocol: The identity of the enzyme was confirmed by testing its ability to oxidize a 3-hydroxysteroid, specifically cholesterol. The enzyme is added to a reagent mixture comprising horseradish peroxidase (20 U/mL), phenol (14 mM), 4-amino antipyrine (0.82 mM), Triton® X-100 (0.05%) and phosphate buffer (100 mM, pH 7). The sterol in isopropanol is then added and the absorbance at 500 nm monitored. One unit of activity is defined as the amount of enzyme required to oxidize 1 &mole of sterol per minute at 20% C.
The activity levels of the enzymes are reported in Table 12 for 3-hydroxysteroids representative of various classes of 3-hydroxysteroids.

European cornborer = test: Lepidopteran larvae bioassay on treated artificial diet, six days; assay type: in vivo; details: stage lv
Protocol: (§1) Lepidopteran larvae were tested on artificial diet treated with the indicated amount of the A19249 3-hydroxysteroid oxidase (cholesterol oxidase) for six days.

black cutworm = test: as above; assay type: in vivo; details: stage lv, dose 100 μg/mL
Protocol: as §1

beet armyworm = test: as above; assay type: in vivo; details: stage lv, dose 100 μg/mL
Protocol: as §1

tobacco hornworm = test: as above; assay type: in vivo; details: stage lv
Protocol: as §1

tobacco budworm = test: as above; assay type: in vivo
Protocol: as §1

fall army worm = test: as above; assay type: in vivo; details: stage lv, dose 30 μg/mL
Protocol: as §1

corn earworm = test: as above; assay type: in vivo; details: stage lv
Protocol: as §1

pink bollworm = test: as above; assay type: in vivo; details: stage lv
Protocol: as §1

tobacco budworm larvae = test: Extended test with tobacco budworm larvae; assay type: in vivo; details: 100 ppm in artificial diet
Protocol: An extended test was performed with tobacco budworm larvae to test the effect of the stunting noted in the six-day test. Tobacco budworm eggs were added to artificial diet (as described above) containing either buffer or 100 ppm A19249 3-hydroxysteroid oxidase (cholesterol oxidase). After seven days, some mortality as compared to the controls was noted. Surviving larvae were moved to fresh diet (control or treated, as appropriate). Percent mortality (corrected for control mortality) is reported for the 7 day and 10 day periods in Table 2A. The corrected number of larvae was […]

boll weevil larvae = test: Boll weevil larvae bioassay (diet incorporation); assay type: in vivo
Protocol: Assays for activity against boll weevil larvae are carried out by incorporating the test sample into a agar liquid diet similar to that for southern corn rootworm [Marrone et al., 1985]. The test sample is substituted for the 20% water component. Neonate larvae are allowed to feed on the diet and mortality and growth stunting are evaluated.
Protein concentrations were determined spectrophotometrically with BCA protein reagent [Smith et al., 1985].

B1: A19249: 3-hydroxysteroid oxidase produced by streptomycete A19249 collected in Madagascar; 52.5 kDa, SEQ ID NO: 8 (protein)
chain: VNAHQPLSRRRMLGLAALGAAALTGQTTITAAPRAAAATAPGGSGGTFVPAVVIGTGYGAAVSALRLGEAGVSTLMLEMGQLWNQPGPDGNVFCGMLKPDKRSSWFKTRTEAPLGSFLWLDLANRDIDPYAGVLDRVNFDQMSVYVGRGVGGGSLVNGGMAVTPRRSYFQEVLPQVDADEMYGTYFPRANSGLRVNNIDKDWFEQTEWYTFARVARLQAENAGLKTTFVPNVYDWDYMRGEADGTNPKSALAAEVIYGNNHGKVSLDKSYLAAALGTGKVTVETLHQVKTIRQQNDGTYLLTVEQKDPDGKLLGTKEISCRHLFLGAGSLGSIELLLRARETGTLPGLSSEIGGGWGPNGNIMTARANHVWNPTGSKQSSIPALGIDDWDNPDNPVFAEIAPMPAGLETWVSLYLAITKNPERGTFVYDAAKDRADLRWTRDQNAPAVAAAKSLFDRVNKANTTIYRYDLFGKQIKAFADDFCYHPLGGCVLGKATDNYGRVSGYKNLYVTDGSLIPGSIGVNPFVTITALAERNVERVIKEDIAGS
For B1, the “Relative Rate” value ([1]; sterol: 20-OH ecdysone) was less than 1, the “Relative Rate” value ([1]; sterol: campesterol*) was 65 and the “Relative Rate” value ([1]; sterol: cholesterol) was 100. For the same molecule, the “Relative Rate” value ([1]; sterol: dehydrocholesterol) was 13, the “Relative Rate” value ([1]; sterol: dihydrocholesterol) was 56 and the “Relative Rate” value ([1]; sterol: ecdysone) was less than 1. For the same molecule, the “Relative Rate” value ([1]; sterol: fucosterol) was 22, the “Relative Rate” value ([1]; sterol: lanosterol) was less than 1 and the “Relative Rate” value ([1]; sterol: lathosterol) was 28. For the same molecule, the “Relative Rate” value ([1]; sterol: sitosterol) was 88, the “Relative Rate” value ([1]; sterol: stigmasterol) was 22 and the Stunting (European cornborer; dose 50 μg/mL) was 0. The Stunting (European cornborer; dose 100 μg/mL) was 46%, the Stunting (black cutworm) was 68% and the Stunting (beet armyworm) was 76%. For the same molecule, the Stunting (tobacco hornworm; dose 30 μg/mL) was 0, the Stunting (tobacco hornworm; dose 100 μg/mL) was 30% and the Stunting (tobacco budworm; stage egg/lv, dose 30 μg/mL) was 0. The Stunting (tobacco budworm; stage lv, dose 100 μg/mL) was 86%, the Stunting (fall army worm) was 0 and the Stunting (corn earworm; dose 50 μg/mL) was 0. The Stunting (corn earworm; dose 100 μg/mL) was 35%, the Stunting (pink bollworm; dose 50 μg/mL) was 0 and the Stunting (pink bollworm; dose 100 μg/mL) was 30%. The “Percent Mortality (corrected for control mortality)” value (“Percent Mortality” below) (tobacco budworm larvae; interval 7 days) was 20%, the “Percent Mortality” value (tobacco budworm larvae; interval 10 days) was 61% and the “Percent Mortality” value (tobacco budworm larvae; interval 14 days) was 80%. For the same molecule, the “BollWeevil % Mortality” value (boll weevil larvae; 5 μg/mL, 175 mUnits per mL) was 10%, the “Survivor Stunting” value (boll weevil larvae; 5 μg/mL, 175 mUnits per mL) was “Slight” and the “BollWeevil % Mortality” value (boll weevil larvae; 10 μg/mL, 350 mUnits per mL) was 10%. The “Survivor Stunting” value (boll weevil larvae; 10 μg/mL, 350 mUnits per mL) was “Moderate”, the “BollWeevil % Mortality” value (boll weevil larvae; 15 μg/mL, 525 mUnits per mL) was 5% and the “Survivor Stunting” value (boll weevil larvae; 15 μg/mL, 525 mUnits per mL) was “Moderate”. For the same molecule, the “BollWeevil % Mortality” value (boll weevil larvae; 20 μg/mL, 700 mUnits per mL) was 15%, the “Survivor Stunting” value (boll weevil larvae; 20 μg/mL, 700 mUnits per mL) was “Severe” and the “BollWeevil % Mortality” value (boll weevil larvae; 40 μg/mL, 1400 mUnits per mL) was 70%. The “Survivor Stunting” value (boll weevil larvae; 40 μg/mL, 1400 mUnits per mL) was “Severe”, the “BollWeevil % Mortality” value (boll weevil larvae; 60 μg/mL, 2100 mUnits per mL) was 60% and the “Survivor Stunting” value (boll weevil larvae; 60 μg/mL, 2100 mUnits per mL) was “Severe”.
